Laboratory results from patent US20080102459A1, “Method of Screening Antiobesity Agents” (ASTELLAS PHARMA INC., priority 2004, published 2008).

Legend:
AGF gene = assay: Amount of AGF gene expressed in C2C12 cells by quantitative PCR; assay type: cell-based, mouse; details: 48 hours, compensated by cyclophilin, insulin at 100 nmol/L
Protocol: C2C12 cells (ATCC No.: CRL-1772) were added to a 24-well collagen-coated plate (ASAHI TECHNO GLASS) to become 20000 cells per well, and cultured with a Dulbecco's modified Eagle's medium (DMEM) supplemented with 15% fetal bovine serum, for one day. After insulin (Biomedical Technologies Inc) was added to the medium to a final concentration of 100 nmol/L, or after the medium was changed to the culture supernatant of 3T3-L1 prepared in Example 11, the C2C12 cells were cultured for 48 hours. As a control, the C2C12 cells were cultured with DMEM supplemented with 15% fetal bovine serum for 48 hours, without such treatments. After the cultivation, total RNAs were prepared from treated cells using an RNeasy Mini Kit (Qiagen) in accordance with a protocol attached thereto, and 500 ng thereof was converted to cDNAs using a Thermoscript RT-PCR system kit (Invitrogen).
Amounts of AGF gene expressed in C2C12 cells were measured by a quantitative PCR, using DNAs of SEQ ID NOS: 29 and 30 as primers for amplifying the mouse AGF, cDNAs (derived from culture supernatants of C2C12 cells) prepared in Example 12 as a template, and a sequence detector (ABI PRISM 7900; Applied Biosystems). […]

MAPK [1] = assay: MAPK phosphorylation by AGF stimulation in HUVEC; assay type: cell-based, human; details: HUVEC instead of C2C12
MAPK p38 = assay: MAPK phosphorylation by AGF stimulation, Western blotting, C2C12 cells differentiated into muscle; assay type: cell-based, mouse; details: AGF protein 1 μg/mL, 10 minutes, versus PBS
Protocol: (§1) C2C12 cells were cultured with a growth medium (DMEM supplemented with 10% FCS) in a type I collagen coated 12-well plate to become confluent. After the medium was changed to a differentiation medium (DMEM supplemented with 2% horse serum), the C2C12 cells were cultured for 7 days to differentiate them into muscle. The cells were cultured in a serum-free medium containing 1% BSA, and the medium was changed to the same medium. The AGF protein (final concentration=1 μg/mL) or an equal volume of PBS was added. After 10 minutes, the medium was remove by suction, and the reaction was stopped by adding 50 μL of a solution for cell lysis [50 mmol/L HEPES (pH7.2), 1% Triton X-100, 10% glycerol, 10 mmol/L Na4P2O7, 100 mmol/L NaF, 100 μmol/L Na3VO4, 40 mmol/L EDTA, 50 μg/mL aprotinin, 1 mmol/L phenylmethyl sulfonyl fluoride (PMSF), 0.1 mmol/L leupeptin, and 25 μmol/L pepstatin A] to the cells. To each cell lysate sample obtained, an SDS-sample buffer [20% glycerol, 130 mmol/L Tris-HCl (pH6.8), 10% 2-mercaptoethanol, 6% SDS, and 0.2 mg/mL bromphenol blue] was added, and each sample was subjected to SDS-PAGE and blotted to a polyvinylidene fluoride (PVDF) membrane. Western blotting was carried out, using an anti-phosphorylated MAPK p38 antibody (Cell signaling #9211), an anti-phosphorylated MAPK p42/p44 antibody (Cell signaling #9101), an anti-MAPK p38 antibody (Cell signaling #9212), or an anti-MAPK p42/44 antibody (Cell signaling #9102) as the first antibody and an HRP-labeled anti-mouse IgG antibody (Example 9) as the second antibody, to detect a phosphorylation of MAPK p38, MAPK p42, and MAPK p44. The result of Western blotting was scanned using a scanner, and a concentration of each phosphorylated band was quantitated by an image analyzing software.

MAPK p44 = assay: as above; assay type: cell-based, mouse; details: AGF protein 1 μg/mL, 10 minutes, versus PBS
Protocol: as §1

MAPK p42 = assay: as above; assay type: cell-based, mouse; details: AGF protein 1 μg/mL, 10 minutes, versus PBS
Protocol: as §1

MAPK [2] = assay: MAPK phosphorylation by AGF stimulation in ATDC5; assay type: cell-based; details: ATDC5 instead of C2C12
ATDC5 cells = assay: Binding of AGF protein to cell line, flow cytometry; details: protein 10 μg/mL, 4° C., 30 minutes; PI negative cells
Protocol: ATDC5 cells were cultured in a growth medium (DMEM/F12 with 5% FCS) to become subconfluent, and removed from a plate by a cell scraper. The cells were washed twice with an FCM buffer (0.1% BSA/1 mmol/L CaCl2/1 mmol/L MgCl2/PBS), and reacted with or without the mouse AGF protein or the human AGF protein at 4° C. for 30 minutes, at a final concentration of 10 μg/mL of the protein. The cells were washed with the FCM buffer, and reacted with fluorescein isothiocyanate (FITC)-labeled M2 antibody (Sigma) at 4° C. for 30 minutes, at a final concentration of 10 μg/mL. The cells were washed three times with the FCM buffer, and propidium iodide (PI) was added to the cells at a final concentration of 1 μg/mL, to stain death cells. The cells were analyzed using a flow cytometer (Cytomics FC 500; Beckman Coulter, Inc.), and an FITC intensity derived from PI negative cells other than death cells was measured.
Since the FLAG sequence was added to the human AGF protein and the mouse AGF protein, when the M2 antibody specific to the FLAG sequence was used, the FITC-labeled M2 antibody bound to the AGF protein which bound to cells, and thus, the fluorescence intensity of cells to which the AGF protein bound was increased. […]

Question: For insulin, which “induction of AGF expression in comparison with untreated control” value (AGF gene) is on record?
Answer: Its value is “approximately 6 times”.

B1: AGF protein: angiopoietin-related growth factor protein, species not stated in Example 16 (protein, UniProt Q8NI99 21-470, looked up)
Angiopoietin-related protein 6: RAGAPRCTYTFVLPPQKFTGAVCWSGPASTRATPEAANASELAALRMRVGRHEELLRELQRLAAADGAVAGEVRALRKESRGLSARLGQLRAQLQHEAGPGAGPGADLGAEPAAALALLGERVLNASAEAQRAAARFHQLDVKFRELAQLVTQQSSLIARLERLCPGGAGGQQQVLPPPPLVPVVPVRLVGSTSDTSRMLDPAPEPQRDQTQRQQEPMASPMPAGHPAVPTKPVGPWQDCAEARQAGHEQSGVYELRVGRHVVSVWCEQQLEGGGWTVIQRRQDGSVNFFTTWQHYKAGFGRPDGEYWLGLEPVYQLTSRGDHELLVLLEDWGGRGARAHYDGFSLEPESDHYRLRLGQYHGDAGDSLSWHNDKPFSTVDRDRDSYSGNCALYQRGGWWYHACAHSNLNGVWHHGGHYRSRYQDGVYWAEFRGGAYSLRKAAMLIRPLKL
Question: What does the source list for B1?
Answer: phosphorylation of MAPK (MAPK [1]): promoted; increase of phosphorylation in phosphorylated MAPK p38 (MAPK p38): 1.6 times; increase of phosphorylation in phosphorylated MAPK p44 (MAPK p44): 4.3 times; increase of phosphorylation in phosphorylated MAPK p42 (MAPK p42): 3.4 times; phosphorylation of MAPK (MAPK [2]): promoted

B2: human AGF protein: FLAG-tagged recombinant human angiopoietin-related growth factor purified from HEK293 culture supernatant (protein)
chain: RAGAPRCTYTFVLPPQKFTGAVCWSGPASTRATPEAANASELAALRMRVGRHEELLRELQRLAAADGAVAGEVRALRKESRGLSARLGQLRAQLQHEAGPGAGPGADLGAEPAAALALLGERVLNASAEAQRAAARFHQLDVKFRELAQLVTQQSSLIARLERLCPGGAGGQQQVLPPPPLVPVVPVRLVGSTSDTSRMLDPAPEPQRDQTQRQQEPMASPMPAGHPAVPTKPVGPWQDCAEARQAGHEQSGVYELRVGRHVVSVWCEQQLEGGGWTVIQRRQDGSVNFFTTWQHYKAGFGRPDGEYWLGLEPVYQLTSRGDHELLVLLEDWGGRGARAHYDGFSLEPESDHYRLRLGQYHGDAGDSLSWHNDKPFSTVDRDRDSYSGNCALYQRGGWWYHACAHSNLNGVWHHGGHYRSRYQDGVYWAEFRGGAYSLRKAAMLIRPLKL
modifications: left off: small tags and cut ends
notes: FLAG-tagged recombinant human angiopoietin-related growth factor purified from HEK293 culture supernatant
Question: With B2 as the molecule, how does the “increase of the fluorescence intensity (FITC-labeled M2 antibody) of cells” value (ATDC5 cells) read?
Answer: The value was 8.1 times.

B3: mouse AGF protein: FLAG-tagged recombinant mouse angiopoietin-related growth factor purified from HEK293 culture supernatant (protein)
chain: ARCRVTLVLSPQKATSAVCRSSEATQDSELATLRMRLGRHEELLRALQRRAAEGGALADEVRALREHSLTLNTRLGQLRAQLQQEARAEPDLGAEPAAALGLLAERALDAEAEARRTTARLQQLDAQLREHAQLMSQHSSLLGRLQRACAGPERGQQQVLPLPLAPLVPLSLVGSASNTSRRLDQTPEHQREQSLRQQGPPSSLLPTGHLAVPTRPVGPWRDCAEAHGAGHWQSGVYDLRLGRRVVAVWCEQQQEGGGWTVIQRRQDGSVNFFTNWQHYKAGFGRPEGEYWLGLEPVHQVTSRGDHELLILLEDWGGRAARAHYDSFSLEPESDHYRLRLGQYHGDAGDSLSWHNDKPFSTVDRDRDSYSGNCALYHRGGWWYHACAHSNLNGVWYHGGHYRSRYQDGVYWAEFRGGAYSLKKAVMLTRLVRL
modifications: left off: small tags and cut ends
notes: FLAG-tagged recombinant mouse angiopoietin-related growth factor purified from HEK293 culture supernatant
Question: How did the “increase of the fluorescence intensity (FITC-labeled M2 antibody) of cells” value (ATDC5 cells) turn out when B3 was run?
Answer: Its value is 1.5 times.
